Source: patent US20150284465A1 (Chugai, published 2015)
Positions count from the first letter of the chain named.

B1: 31R_H2L2 (antibody, V domains shown)
VH: QVQLVQSGAEVKKPGASVKVSCKASGYTFTGYIMNWVRQAPGQGLEWMGLINPYNGGTSYNQQFQDRVTITADESTSTAYMELSSLRSEDTAVYYCARDGYDDGPYTMDYWGQGTLVTVSS
VL: DIQMTQSPSSLSASVGDRVTITCQTSEDIYSFLAWYQQKPGKAPKLLIYNAQTEAQGVPSRFSGSGSGTDFTLTISSLQPEDFATYYCQHHYESPLTFGGGTKVEIKR
B2: 31R_H1L1 (antibody)
heavy: QVQLVQSGAEVKKPGASVKVSCKASGYTFTGYIMNWVRQAPGQGLEWMGLINPYNGGTSYNQKFKGRVTITADESTSTAYMELSSLRSEDTAVYYCARDGYDDGPYTMDYWGQGTLVTVSSASTKGPSVFPLAPSSKSTSESTAALGCLVKDYFPEPVTVSWNSGALTSGVHTFPAVLQSSGLYSLSSVVTVPSSNFGTQTYTCNVDHKPSNTKVDKTVERKSCVECPPCPAPPVAGPSVFLFPPKPKDTLMISRTPEVTCVVVDVSHEDPEVQFNWYVDGVEVHNAKTKPREEQFNSTFRVVSVLTVVHQDWLNGKEYKCKVSNKGLPAPIEKTISKTKGQPREPQVYTLPPSREEMTKNQVSLTCLVKGFYPSDIAVEWESNGQPENNYKTTPPMLDSDGSFFLYSKLTVDKSRWQQGNVFSCSVMHEALHNHYTQKSLSLSPGK
light: DIQMTQSPSSLSASVGDRVTITCRTSENIYSFLAWYQQKPGKAPKLLIYNAKTLAKGVPSRFSGSGSGTDFTLTISSLQPEDFATYYCQHHYESPLTFGGGTKVEIKRTVAAPSVFIFPPSDEQLKSGTASVVCLLNNFYPREAKVQWKVDNALQSGNSQESVTEQDSKDSTYSLSSTLTLSKADYEKHKVYACEVTHQGLSSPVTKSFNRGEC
notes: Anti-human IL-31 receptor antibody
B3: 31R_H3L2 (antibody, V domains shown)
VH: B1 VH with Q62D
VL: B1 VL

Biological target: T1, soluble human IL-31 receptor (human, UniProt Q8NI17 20-514)
T1 construct: also called soluble NR10; NR10
T1 sequence: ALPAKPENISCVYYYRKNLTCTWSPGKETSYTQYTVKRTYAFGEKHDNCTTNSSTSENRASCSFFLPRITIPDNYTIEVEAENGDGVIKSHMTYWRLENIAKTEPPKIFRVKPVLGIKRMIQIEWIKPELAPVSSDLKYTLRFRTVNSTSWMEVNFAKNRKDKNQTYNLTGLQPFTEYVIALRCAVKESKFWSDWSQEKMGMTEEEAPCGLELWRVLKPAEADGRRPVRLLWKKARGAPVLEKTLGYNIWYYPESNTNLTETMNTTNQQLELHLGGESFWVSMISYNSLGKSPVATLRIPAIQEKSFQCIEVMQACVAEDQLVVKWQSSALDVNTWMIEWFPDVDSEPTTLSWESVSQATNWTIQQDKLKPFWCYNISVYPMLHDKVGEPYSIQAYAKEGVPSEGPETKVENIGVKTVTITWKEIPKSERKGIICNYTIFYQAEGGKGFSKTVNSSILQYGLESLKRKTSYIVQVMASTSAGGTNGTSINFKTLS
Assay: SPR (Biacore T100), antibody captured on Protein A, soluble human IL-31 receptor as analyte
Experimental: The antigen-antibody reaction kinetics between anti-human IL-31 receptor antibody and soluble human IL-31 receptor was analyzed using Biacore T100 (GE Healthcare Biosciences). The antigen-antibody interaction was measured by immobilizing rec-Protein A (Zymed) (hereinafter “Protein A”) onto a sensor chip, capturing an antibody with the immobilized Protein A, and then reacting the antibody with the antigen as an analyte using a method known to those skilled in the art. […] In the first step of the measurement, the antibody in solution was bound to Protein A/G, and the analyte solution was allowed to interact with the antibody. After three minutes of interaction, the solution was switched to HBS-EP+, and the dissociation phase was monitored for five minutes. After measurement of the dissociation phase, the sensor chip was regenerated by washing with 10 μl of 10 mM glycine-HCl (pH 1.5). The association, dissociation, and regeneration constitute one analysis cycle. Each antibody was measured according to this cycle. The obtained sensorgrams were kinetically analyzed using the Biacore-specific data analysis software, Biacore T100 Evaluation Software (GE Healthcare Biosciences).

Binder	Kd [nM]	koff [s⁻¹]	kon [M⁻¹ s⁻¹]
B1	3.9	0.0016	420000
B2	3.3	0.0012	370000
B3	3.6	0.0016	440000
